Reference: PMC5372524, “Structural Basis of Native CXCL7 Monomer Binding to CXCR2 Receptor N-Domain and Glycosaminoglycan Heparin” (International Journal of Molecular Sciences, 2017)
Where “and” joins values, the source holds several entries; their conditions need not be identical. Identical values can stand only once.

Biological target: the molecule itself
Test: relative peak intensities in 2D HSQC NMR spectra; monomer/dimer/tetramer levels of CXCL7 as a function of buffer, temperature, pH and concentration (Table S1)

B1: CXCL7 (NAP-2, neutrophil-activating peptide 2), wild type (natural protein, UniProt P02775 59-128, looked up)
chain: AELRCMCIKTTSGIHPKNIQSLEVIGKGTHCNQVEVIATLKDGRKICLDPDAPRIKKIVQKKLAGDESAD
notes: Chemokine CXCL7, also known as NAP-2; 15N-labelled for the HSQC titrations; Exists as monomer, dimer and tetramer depending on pH and concentration; also called WT CXCL7; native CXCL7 monomer; source: Escherichia coli (LB or 15N/13C enriched minimal medium), purified (nickel column, reverse phase HPLC), lyophilized
stoichiometry N: 4 and 2
